Measured values: PMC6375223

Target: SKP2 (UniProt Q13309)
Assay: co-immunoprecipitation from transfected 293T cells
Conditions: reference: wild-type PDCD4; sites S67

PDCD4 (from UniProt Q53EL6) PDCD4 S67A
binding against the reference: lost
